Consider 3 molecules from patent publication US20230119290A1 (UNIVERSIT T ZU K LN, published 2023).

For assay [1], the target named is sFlt-1 (soluble splice variant of VEGF receptor 1) in human serum (human) (UniProt P17948). The assay can be described thus: adsorption of sFlt-1 from human serum on ligand column (agarose), sFlt-1 ELISA of flow through.
For assay [2] the target is unchanged. The assay can be described thus: single run of serum of 10 preeclampsia patients over scVEGF^165 column, sFlt-1 ELISA before and after.
For assay [3] the target is unchanged. The assay can be described thus: cell-based or functional assay.
Assay [4] shares this target. The assay can be described thus: adsorption of sFlt-1 from preeclampsia patient serum on agarose column, sFlt-1 ELISA before and after. For orientation: In an ELISA, binding on a coated surface is turned into a signal by an enzyme label.
For assay [5], the target named is T1, VEGF-Trap (chimeric protein of VEGFR-1 domain 2 and VEGFR-2 domain 3 fused to Fc) (UniProt P17948 129-230; P35968 225-327).
T1 construct: also called VEGFR1/R2 trap; not shown: Fc segment
T1 sequence (P17948 other isoform, or with tags, fused parts or gaps mutant): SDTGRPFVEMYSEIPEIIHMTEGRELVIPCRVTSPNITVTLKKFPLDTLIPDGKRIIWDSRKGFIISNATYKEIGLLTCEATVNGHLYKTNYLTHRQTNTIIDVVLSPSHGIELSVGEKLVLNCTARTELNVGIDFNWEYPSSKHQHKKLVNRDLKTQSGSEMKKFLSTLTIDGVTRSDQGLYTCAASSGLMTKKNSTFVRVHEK
The experiment in a line: solid phase ELISA, VEGF/PIGF variant immobilised, VEGF-trap titrated 0.1 to 750 nM, Kd from saturation curve. As for the experimental part:
ELISA style binding assays were performed as described previously (Agarwal et al., 2012). In brief, 10 µg/ml of recombinant VEGF, PIGF and their mutant variants were individually immobilized together with bovine serum albumin (BSA) on 96 well plate (Transparente Immuno Standardmodule, Thermo scientific, Denmark), while matrix loaded only with BSA served as a control. A binding saturation curve was generated by applying increasing concentrations of VEGFR1/R2 trap ranging from 0,1 to 750 nM, followed by detection of the ligand-receptor complex using a horseradish peroxidase (HRP)-conjugated antibody against the mouse Fc domain of VEGFR1/R2 trap. Luminescence was quantified at optical density (OD) 450 nm using a by spectrophotometer (Thermo ScientificMultiskan GO, Finland).

Chain of sFlt-1 (soluble splice variant of VEGF receptor 1) in human serum (human) (P17948 other isoform, or with tags, fused parts or gaps mutant): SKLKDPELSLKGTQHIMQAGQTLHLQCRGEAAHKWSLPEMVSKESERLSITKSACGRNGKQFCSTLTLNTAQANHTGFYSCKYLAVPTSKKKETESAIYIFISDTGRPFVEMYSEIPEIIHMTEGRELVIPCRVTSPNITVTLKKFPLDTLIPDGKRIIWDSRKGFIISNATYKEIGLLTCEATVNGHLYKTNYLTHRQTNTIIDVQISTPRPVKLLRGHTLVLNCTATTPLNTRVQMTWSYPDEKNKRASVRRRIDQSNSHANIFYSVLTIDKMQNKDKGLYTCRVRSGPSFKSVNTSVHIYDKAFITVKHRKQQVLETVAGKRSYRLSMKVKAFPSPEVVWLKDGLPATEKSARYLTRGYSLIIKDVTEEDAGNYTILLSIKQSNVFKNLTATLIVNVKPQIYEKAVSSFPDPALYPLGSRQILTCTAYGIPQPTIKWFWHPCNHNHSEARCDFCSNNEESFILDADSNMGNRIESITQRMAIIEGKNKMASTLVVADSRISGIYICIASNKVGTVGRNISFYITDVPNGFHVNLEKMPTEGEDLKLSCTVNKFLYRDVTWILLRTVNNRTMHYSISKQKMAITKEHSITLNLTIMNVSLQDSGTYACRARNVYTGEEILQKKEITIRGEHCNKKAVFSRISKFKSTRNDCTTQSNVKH

With “single chain VEGF^165 dimer (scVEGF^165) (from UniProt P49151 27-190) (ligand)”, in assay [1], the reduction of sFlt-1 in a single run was found to be 86.2%. Also, in assay [2], the sFlt-1 reduction (mean of 10 patient samples) was 88% and the sFlt-1 reduction (median of 10 patient samples) turned out to be 92.2%. In assay [3], this molecule gave a PIGF release (free PIGF in serum after against before the column) of 20 fold; a PIGF release (free PIGF in serum after against before the column), median of 14.6 fold; a VEGF release (free VEGF in serum after against before the column) of 9.07 fold; a VEGF release (free VEGF in serum after against before the column), median of 8.74 fold. Also, in assay [4], the reduction of sFlt-1 in a single run came out at 89.9%.

B1: monomeric wildtype VEGF^165 (moVEGF^165) (ligand, human, UniProt P15692-4 27-191, looked up)
chain: APMAEGGGQNHHEVVKFMDVYQRSYCHPIETLVDIFQEYPDEIEYIFKPSCVPLMRCGGCCNDEGLECVPTEESNITMQIMRIKPHQGQHIGEMSFLQHNKCECRPKKDRARQENPCGPCSERRKHLFVQDPQTCKCSCKNTDSRCKARQLELNERTCRCDKPRR
notes: mature; Expressed from a monomeric construct in HEK293T cells; not shown: N-terminal Strep tag from the expression vector
Take B1: the “fold higher affinity compared to moPIGF” value in assay [5] was determined as 2.6 fold. The molecule further returned a reduction of sFlt-1 in a single passage in assay [4] of 77.2%.

B2: monomeric PIGF (moPIGF) (ligand, UniProt P49763-2 19-149, looked up, not shown: small tags and cut ends)
chain: LPAVPPQQWALSAGNGSSEVEVVPFQEVWGRSYCRALERLVDVVSEYPSEVEHMFSPSCVSLLRCTGCCGDENLHCVPVETANVTMQLLKIRSGDRPSYVELTFSQHVRCECRPLREKMKPERCGDAVPRR
In the case of B2, in assay [4], the reduction of sFlt-1 in a single passage was 46.2%.
